“And” between values parts separate entries of the source, which are not always exact repeats. Equal values may be shown once.
Conditions: Bos taurus, whole UniProt chain shown
[1] = pH 6.8, 27 °C, GdnHCl, Absorbance, Sodium phosphate 50 mM, NaCl 50 mM, reversible: no
[2] = pH 7.2, Thermal, DSC, phosphate 20 mM, transition: 3, reversible: no
[3] = pH 7, 25 °C, GdnHCl, Absorbance, MOPS 30 mM, reversible: yes
[4] = pH 7, 25 °C, GdnHCl, Fluorescence, MOPS 30 mM, reversible: yes
[5] = pH 7, 25 °C, GdnSCN, Fluorescence, MOPS 30 mM, reversible: YES
[6] = pH 7.2, 25 °C, Urea, CD, Phosphate 20 mM, reversible: yes
[7] = pH 7.4, Thermal, DSC, sodium phosphate 50 mM, reversible: yes
[8] = pH 7.4, 23 °C, GdnHCl, CD, Sodium phosphate 200 mM, reversible: yes
[9] = pH 7.5, 25 °C, Urea, CD, Tris-HCl 20 mM, reversible: yes
[10] = pH 9, 25 °C, Urea, CD, Tris-HCl 20 mM, reversible: yes

B1: Gamma-crystallin B wild type, P02526 (protein)
chain: MGKITFYEDRGFQGHCYECSSDCPNLQPYFSRCNSIRVDSGCWMLYERPNYQGHQYFLRRGDYPDYQQWMGFNDSIRSCRLIPQHTGTFRMRIYERDDFRGQMSEITDDCPSLQDRFHLTEVHSLNVLEGSWVLYEMPSYRGRQYLLRPGEYRRYLDWGAMNAKVGSLRRVMDFY
denaturant m value [1]: 1.3 kcal/mol/M and 0.9 kcal/mol/M
denaturant midpoint (higher = more stable) [1]: 3 M and 1.3 M
unfolding enthalpy (calorimetric) (pH 7.2, Thermal, DSC, phosphate 20 mM, reversible: no): 82.3 kcal/mol and 149 kcal/mol and 90 kcal/mol
unfolding enthalpy (calorimetric) [2]: 126 kcal/mol and 148 kcal/mol
unfolding enthalpy (van 't Hoff) [2]: 110 kcal/mol and 71 kcal/mol

B2: Cytochrome b5 wild type, P00171 (protein)
chain: MAEESSKAVKYYTLEEIQKHNNSKSTWLILHYKVYDLTKFLEEHPGGEEVLREQAGGDATENFEDVGHSTDARELSKTFIIGELHPDDRSKITKPSESIITTIDSNPSWWTNWLIPAISALFVALIYHLYTSEN
unfolding free energy (pH 7, 10 °C, GdnHCl, Fluorescence, MOPS 30 mM, reversible: yes): 2.77 kcal/mol
denaturant midpoint (higher = more stable) (pH 7, 25 °C, GdmSCN, UV/visible spectrophotometer, MOPS 30mM): 1.52 M
denaturant m value [3]: 2.14 kcal/mol/M
denaturant midpoint (higher = more stable) [3]: 3.05 M
unfolding free energy [3]: 6.57 kcal/mol
denaturant m value [4]: 2.05 kcal/mol/M
denaturant midpoint (higher = more stable) [4]: 2.99 M
unfolding free energy [4]: 6.09 kcal/mol
denaturant m value [5]: 2.4 kcal/mol/M and 1.7 kcal/mol/M
unfolding free energy [5]: 3.2 kcal/mol and 2.7 kcal/mol
unfolding free energy (pH 7, 25 °C, Thermal, DSC, sodium phosphate 50 mM, reversible: yes): 5.98 kcal/mol
Tm (pH 7, Thermal, Fluorescence, potassium phosphate 50 mM, reversible: YES): 85.5 °C
Tm (pH 7, Thermal, UV spectroscopy, Sodium phosphate 50 mM, reversible: Yes): 79.4 °C
Tm (pH 7, Thermal, UV/visible spectrophotometer, Potassium phosphate 50mM): 67.6 °C
denaturant m value [6]: 0.93 kcal/mol/M
unfolding free energy [6]: 6.57 kcal/mol
unfolding enthalpy (van 't Hoff) (pH 7.2, Thermal, Absorbance, Phosphate 20 mM, reversible: yes): 82.5 kcal/mol and 33.9 kcal/mol
Tm [7]: 70.7 °C
heat capacity change of unfolding [7]: 0.13 kcal/mol/K

B3: Spermadhesin-1 wild type, P29392 (protein)
chain: MKLSSVIPWALLLSTATVDSMDWLPRNTNCGGILKEESGVIATYYGPKTNCVWTIQMPPEYHVRVSIQYLQLNCNKESLEIIDGLPGSPVLGKICEGSLMDYRSSGSIMTVKYIREPEHPASFYEVLYFQDPQA
Tm (pH 7, Thermal, DSC, sodium phosphate 10 mM, reversible: no): 78.6 °C

B4: Beta-crystallin B2 wild type, P02522 (protein)
chain: MASDHQTQAGKPQPLNPKIIIFEQENFQGHSHELNGPCPNLKETGVEKAGSVLVQAGPWVGYEQANCKGEQFVFEKGEYPRWDSWTSSRRTDSLSSLRPIKVDSQEHKITLYENPNFTGKKMEVIDDDVPSFHAHGYQEKVSSVRVQSGTWVGYQYPGYRGLQYLLEKGDYKDSGDFGAPQPQVQSVRRIRDMQWHQRGAFHPSS
Tm (pH 7.2, Thermal, fluorescence, sodium phospahte 20 mM, NaCl, transition: 2): 56.8 °C

B5: Thiosulfate sulfurtransferase wild type, P00586 (protein)
chain: MVHQVLYRALVSTKWLAESVRAGKVGPGLRVLDASWYSPGTREARKEYLERHVPGASFFDIEECRDKASPYEVMLPSEAGFADYVGSLGISNDTHVVVYDGDDLGSFYAPRVWWMFRVFGHRTVSVLNGGFRNWLKEGHPVTSEPSRPEPAIFKATLNRSLLKTYEQVLENLESKRFQLVDSRAQGRYLGTQPEPDAVGLDSGHIRGSVNMPFMNFLTEDGFEKSPEELRAMFEAKKVDLTKPLIATCRKGVTACHIALAAYLCGKPDVAIYDGSWFEWFHRAPPETWVSQGKGGKA
denaturant m value [8]: 2.34 kcal/mol/M
unfolding free energy [8]: 3.39 kcal/mol

B6: Chymosin wild type, P00794 (protein)
chain: MRCLVVLLAVFALSQGAEITRIPLYKGKSLRKALKEHGLLEDFLQKQQYGISSKYSGFGEVASVPLTNYLDSQYFGKIYLGTPPQEFTVLFDTGSSDFWVPSIYCKSNACKNHQRFDPRKSSTFQNLGKPLSIHYGTGSMQGILGYDTVTVSNIVDIQQTVGLSTQEPGDVFTYAEFDGILGMAYPSLASEYSIPVFDNMMNRHLVAQDLFSVYMDRNGQESMLTLGAIDPSYYTGSLHWVPVTVQQYWQFTVDSVTISGVVVACEGGCQAILDTGTSKLVGPSSDILNIQQAIGATQNQYGEFDIDCDNLSYMPTVVFEINGKMYPLTPSAYTSQDQGFCTSGFQSENHSQKWILGDVFIREYYSVFDRANNLVGLAKAI
unfolding free energy [9]: 6.45 kcal/mol
unfolding free energy [10]: 3.56 kcal/mol and 3.47 kcal/mol

B7: Pepsin A wild type, P00792 (protein)
chain: MSVVKIPLVKKKSLRQNLIENGKLKEFMRTHKYNLGSKYIREAATLVSEQPLQNYLDTEYFGTIGIGTPAQDFTVIFDTGSSNLWVPSIYCSSEACTNHNRFNPQDSSTYEATSETLSITYGTGSMTGILGYDTVQVGGISDTNQIFGLSETEPGSFLYYAPFDGILGLAYPSISSSGATPVFDNIWDQGLVSQDLFSVYLSSNEESGSVVIFGDIDSSYYSGSLNWVPVSVEGYWQITVDSITMNGESIACSDGCQAIVDTGTSLLAGPTTAISNIQSYIGASEDSSGEVVISCSSIDSLPDIVFTINGVQYPVPPSAYILQSNGICSSGFEGMDISTSSGDLWILGDVFIRQYFTVFDRGNNQIGLAPVA
unfolding free energy [9]: 6.36 kcal/mol
unfolding free energy [10]: 2.72 kcal/mol
